These results are taken from paper PMC6258031 (Structure (London, England : 1993), 2017).

Positions count from the first letter of the chain named. In names and notes the source's numbering stands. Non-standard residues stand in square brackets, D forms with d. SeMet = C[Se]CC[C@H](N)C(=O)O

T1: Bicc1 SAM F920E (human, UniProt Q9H694 870-939, F920E)
T1 sequence (looked up): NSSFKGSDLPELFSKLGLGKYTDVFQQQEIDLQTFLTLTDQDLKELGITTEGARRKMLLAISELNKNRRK

T2: ANKS3 SAM F472E (human, UniProt Q6ZW76 421-490, F472E)
T2 sequence (looked up): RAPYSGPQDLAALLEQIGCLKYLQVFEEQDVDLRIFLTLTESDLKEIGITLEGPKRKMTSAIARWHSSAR

B1: ANKS3 SAM I455E (domain or fragment, human, UniProt Q6ZW76 421-490, looked up)
chain: T2 sequence (looked up) with I35E, E52F
B2: Bicc1 SAM R924E SeMet (domain or fragment, human, UniProt Q9H694 870-939, looked up)
chain: NSSFKGSDLPELFSKLGLGKYTDVFQQQEIDLQTFLTLTDQDLKELGITTFGAREK[SeMet]LLAISELNKNRRK
B3: Bicc1 SAM E898K (domain or fragment, human, UniProt Q9H694 870-939, looked up)
chain: T1 sequence (looked up) with E29K, E51F
B4: Bicc1 SAM R924E (native) (domain or fragment, human, UniProt Q9H694 870-939, looked up)
chain: T1 sequence (looked up) with E51F, R55E
B5: Bicc1 SAM D911K (domain or fragment, human, UniProt Q9H694 870-939, looked up)
chain: T1 sequence (looked up) with D42K, E51F

The target of one data set is ANKS6 SAM (Homo sapiens) (UniProt Q68DC2). Conditions: cited from earlier work.
For the next data set, the target named is T1, Bicc1 SAM F920E. Put plainly: SEC-MALS. A general note: In gel filtration, larger molecules generally elute earlier.
The target in the data set “Bicc1 SAM R924E (native)” is B4. Put plainly: SPR. Background: SPR reads the build-up and loss of mass on a sensor chip optically.
The data set “crystal structure” concerns the molecule itself. Briefly: crystal structure.
For the next data set, the target named is T2, ANKS3 SAM F472E. Put plainly: SPR.

Chain of ANKS6 SAM (Homo sapiens) (Q68DC2 770-839): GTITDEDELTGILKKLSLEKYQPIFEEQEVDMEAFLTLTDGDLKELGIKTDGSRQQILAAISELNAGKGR

In general, Kd refers to the free concentration of one partner at which half of the binding sites on the other are occupied at equilibrium, for simple one-to-one binding. Consider ANKS3 SAM (from UniProt Q6ZW76), for which, in the data set with ANKS6 SAM (Homo sapiens), the Kd was 249 nM.
As to B1, the binding result in the data set with Bicc1 SAM F920E is reported as “binds”. Also, in the data set with Bicc1 SAM R924E (native), binding was put at a Kd of 2200 ± 100 nM.
Turning to B2, the binding result in “crystal structure” is recorded as “binds”.
Consider B3, for which the Kd in the data set with ANKS3 SAM F472E and with Bicc1 SAM R924E (native) was 1350 ± 100 nM throughout.
Consider B4, for which, in the data set “crystal structure”, the binding result was “binds”.
Consider B5, for which the Kd in the data set with ANKS3 SAM F472E and with Bicc1 SAM R924E (native) was 1350 ± 100 nM each time.
